Results published in PMC8287531 (2021).
Where no end group is shown, it is not given here.

Molecular target: T1, talin R7R8 rod domains (UniProt Q9Y490 1359-1659)
T1 chain: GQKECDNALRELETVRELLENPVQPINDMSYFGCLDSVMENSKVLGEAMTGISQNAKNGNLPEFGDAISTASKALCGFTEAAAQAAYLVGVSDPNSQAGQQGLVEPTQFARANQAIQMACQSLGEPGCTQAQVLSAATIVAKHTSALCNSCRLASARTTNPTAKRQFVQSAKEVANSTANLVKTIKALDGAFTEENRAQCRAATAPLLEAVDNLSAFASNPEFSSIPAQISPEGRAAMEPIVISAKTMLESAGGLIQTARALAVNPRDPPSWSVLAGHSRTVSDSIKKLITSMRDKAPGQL
Test: FP

Kd: 3.6 µM
Binder: SEDIDQMFSTLLGEMDLLTQSLGVDTC (also: fluorescein-labeled, position not given here) [RIAM(4-30) peptide, fluorescein-labeled]
